Test results from US11833164B2, “Methods of treating Fabry disease in patients having a mutation in the GLA gene” (Amicus Therapeutics, Inc., priority 2019, dated 2023).
Where a chain is given by its changes, count along the chain named. Names and notes keep the numbering of the source.

B1: L177S (protein)
chain: MQLRNPELHLGCALALRFLALVSWDIPGARALDNGLARTPTMGWLHWERFMCNLDCQEEPDSCISEKLFMEMAELMVSEGWKDAGYEYLCIDDCWMAPQRDSEGRLQADPQRFPHGIRQLANYVHSKGLKLGIYADVGNKTCAGFPGSFGYYDIDAQTFADWGVDLLKFDGCYCDSSENLADGYKHMSLALNRTGRSIVYSCEWPLYMWPFQKPNYTEIRQYCNHWRNFADIDDSWKSIKSILDWTSFNQERIVDVAGPGGWNDPDMLVIGNFGLSWNQQVTQMALWAIMAAPLFMSNDLRHISPQAKALLQDKDVIAINQDPLGKQGYQLRQGDNFEVWERPLSGLAWAVAMINRQEIGGPRSYTIAVASLGKGVACNPACFITQLLPVKRKLGFYEWTSRLRSHINPTGTVLLQLENTMQMSLKDLL
B2: L177W (protein)
chain: B1 chain with S177W
B3: L180M (protein)
chain: B1 chain with S177L, L180M
B4: L180S (protein)
chain: B1 chain with S177L, L180S
B5: Y184F (protein)
chain: B1 chain with S177L, Y184F
B6: L177V (protein)
chain: B1 chain with S177V
B7: A181V (protein)
chain: B1 chain with S177L, A181V
B8: Y184S (protein)
chain: B1 chain with S177L, Y184S
B9: K185N (protein)
chain: B1 chain with S177L, K185N
B10: D182V (protein)
chain: B1 chain with S177L, D182V
B11: D182E (protein)
chain: B1 chain with S177L, D182E
B12: A181T (protein)
chain: B1 chain with S177L, A181T
B13: Y184H (protein)
chain: B1 chain with S177L, Y184H
B14: E178Q (protein)
chain: B1 chain with S177L, E178Q
B15: D182Y (protein)
chain: B1 chain with S177L, D182Y
B16: A181P (protein)
chain: B1 chain with S177L, A181P
B17: D182A (protein)
chain: B1 chain with S177L, D182A
B18: K185M (protein)
chain: B1 chain with S177L, K185M
B19: E178G (protein)
chain: B1 chain with S177L, E178G
B20: E178A (protein)
chain: B1 chain with S177L, E178A
B21: E178K (protein)
chain: B1 chain with S177L, E178K

Test system: mutant form of α-Gal A expressed in HEK-293 cells
Assay: HEK assay (GLP HEK / Migalastat Amenability Assay): α-Gal A activity in lysates of transiently transfected HEK-293 cells incubated with or without 10 μM migalastat
Type: cell-based, human
Settings: for Absolute increase (% WT): 10 μM migalastat versus baseline; for Relative increase: 10 μM migalastat α-Gal A activity relative to baseline; for 10 μM migalastat α-Gal A activity (% WT): 5 days; for 10 μM migalastat α-Gal A activity (% WT) / Baseline α-Gal A activity (% WT): percentage of baseline wild-type α-Gal A activity; for 10 μM migalastat α-Gal A activity (% WT) / Baseline α-Gal A activity (% WT) / Baseline α-Gal A activity / 10 μM migalastat α-Gal A activity: mean ± SEM; for Baseline α-Gal A activity (% WT): absence of migalastat; for Baseline α-Gal A activity / 10 μM migalastat α-Gal A activity: lysates of HEK-293 cells transfected with the mutant form; for Baseline α-Gal A activity: incubated 5 days in the absence of migalastat; for 10 μM migalastat α-Gal A activity: incubated 5 days with 10 μM migalastat
In short: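 HEK-293 cells transiently transfected with mutant α-Gal A and incubated with or without 10 μM migalastat; lysate activity given as nmol free 4-MU released per mg protein per hour. Values are mean±SEM.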

Molecule	Absolute increase (% WT)	Relative increase	10 μM migalastat α-Gal A activity (% WT)	Baseline α-Gal A activity (% WT)	Baseline α-Gal A activity [nmol/mg/h]	10 μM migalastat α-Gal A activity [nmol/mg/h]
B1	35.9	1.7	87.2 ± 4.5	51.4 ± 1.7	17445 ± 533	29868 ± 1909
B2	37.6	1.7	88.2 ± 2	50.5 ± 2.6	17321 ± 1025	30075 ± 867
B3	29.5	1.3	122.9 ± 5.5	93.4 ± 6.6	35987 ± 2266	47587 ± 2132
B4	35.5	3.3	50.9 ± 2.3	15.4 ± 1.5	5625 ± 604	18335 ± 964
B5	31.8	1.4	109.7 ± 5.8	77.9 ± 4.4	26088 ± 1334	36815 ± 2009
B6	22.9	1.3	91.8 ± 2.8	68.9 ± 3.2	23616 ± 1282	31347 ± 1132
B7	14.2	1.2	93.2 ± 5.3	79.1 ± 3.5	26667 ± 1945	32358 ± 2863
B8	25.2	2.7	40.6 ± 1.6	15.4 ± 1	5213 ± 371	13965 ± 799
B9	22.5	12.7	24.4 ± 1.9	1.9 ± 0.1	833 ± 38	10540 ± 618
B10	44.7	1.6	124.8 ± 6.9	80.2 ± 4.2	26881 ± 2166	42107 ± 3524
B11	32.3	1.4	117.1 ± 4.5	84.8 ± 4	28082 ± 2023	38956 ± 2806
B12	19.2	1.4	71.3 ± 4.6	52.1 ± 2.7	17946 ± 1002	24490 ± 1576
B13	18.4	1.6	48.6 ± 3.5	30.2 ± 2.9	10980 ± 867	17894 ± 1145
B14	18.3	1.3	86.4 ± 5	68.1 ± 4.5	23272 ± 1501	29671 ± 1733
B15	31.9	1.4	116.5 ± 6.4	84.7 ± 4.1	28377 ± 2226	39247 ± 3250
B16	29.8	1.9	61.5 ± 3.3	31.7 ± 2	10948 ± 725	21274 ± 1279
B17	31.8	1.3	133.3 ± 8.2	101.5 ± 5.7	33673 ± 2886	44436 ± 3828
B18	27.8	1.3	102.9 ± 9	75.1 ± 4.6	33484 ± 2151	44387 ± 2696
B19	18.6	1.5	61.7 ± 6.4	43.1 ± 4.7	17470 ± 2323	26566 ± 4263
B20	14.5	1.2	84.8 ± 6.8	70.3 ± 4.9	23910 ± 1511	29125 ± 2326
B21	16.4	1.2	90.9 ± 4.8	74.5 ± 3.4	25584 ± 1225	31222 ± 1660
